“And” between values parts separate entries of the source, which are not always exact repeats. Identical values can stand only once. Blank lines part the entries; values can stand above or below the binder they belong to.
Assays:
大肠杆菌表达的GST-MIF重组蛋白 [1] = biological target: T1, 大肠杆菌表达的GST-MIF重组蛋白 (human, UniProt P14174 1-115); experiment: ELISA by the method of Example 1 (coated GST-MIF; concentration at 50% of the maximal reading)
T1 construct: Coating antigen (10 ug/ml) of the ELISA that gave all the dissociation constants; GST is placed N-terminal by the name GST-MIF; also called 人MIF; not shown: GST tag and vector-encoded residues from pET-41a
T1 sequence (looked up): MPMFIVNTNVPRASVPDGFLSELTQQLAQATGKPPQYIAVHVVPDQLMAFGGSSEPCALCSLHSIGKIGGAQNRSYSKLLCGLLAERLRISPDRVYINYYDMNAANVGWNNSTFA

大肠杆菌表达的GST-MIF重组蛋白 [2] = biological target: T1, 大肠杆菌表达的GST-MIF重组蛋白; experiment: ELISA on coated GST-MIF (10 ug/ml); antibody concentration at 50% of the maximal reading is taken as the dissociation constant

B2: 杂交瘤细胞株10C3 CGMCC No.1717分泌的单克隆抗体 (antibody, mouse IgG2b, V domains shown)
VH: QVQLEESGGALVKPGGSLKLSCAASGFTFSTYAMSWVRQTPEKRLEWVATISSGGDYTHYPDSVKGRFTISRDNARNTLYLQMSSLRSEDTAMFYCARPYYGSSYWFYDVWGAGTTVTVSS
VL: DIVLTQTPVSIIASRGEKVTITCRARSSISSTYLHWYQQKPGSSPKLLIYRTSILASGVLDSFSGSGSETSDTLTISCMQDEVAATYYCQQGSSSPLTFGAGTKLELKR
notes: the mouse constant regions are not; Hybridoma supernatant was used in the ELISA and ascites-purified antibody in the cell assays; also called 10C3Ab; anti-MIF
Kd (大肠杆菌表达的GST-MIF重组蛋白 [2]): 3 nM and 0.48 µg/mL

B3: 抗MIF的Fab片段10C3Fab (Fab, V domains shown)
VH: B2 VH
VL: B2 VL
Kd (大肠杆菌表达的GST-MIF重组蛋白 [1]): 0.01 µM

Second part, the binder after the results:

Kd (大肠杆菌表达的GST-MIF重组蛋白 [1]): 0.03 µM
B1: 抗MIF单链抗体10C3scFV (scFv)
scFv: QVQLEESGGALVKPGGSLKLSCAASGFTFSTYAMSWVRQTPEKRLEWVATISSGGDYTHYPDSVKGRFTISRDNARNTLYLQMSSLRSEDTAMFYCARPYYGSSYWFYDVWGAGTTVTVSSGSSGSGSSGSGSSGSDIVLTQTPVSIIASRGEKVTITCRARSSISSTYLHWYQQKPGSSPKLLIYRTSILASGVLDSFSGSGSETSDTLTISCMQDEVAATYYCQQGSSSPLTFGAGTKLELKR
notes: Heavy and light variable regions joined by a 15-residue Gly/Ser-rich linker; Expressed from pET-26b in BL21 with a 6xHis tag

Kd (大肠杆菌表达的GST-MIF重组蛋白 [1]): 0.003 µM
B4: 人-鼠嵌合抗体ch-10C3 (antibody, V domains shown)
VH: B2 VH
VL: B2 VL
